Data published in patent US10556944B2, “Fab region-binding peptide” (priority 2013, dated 2020).
Where no end group is shown, it is not given here.

What was measured:
[1] = test system: anti-Her2antibody-Fab (IgG-Fab derived from anti-Her2 monoclonal antibody, Trastuzumab); assay: Biacore 3000 surface plasmon resonance, affinity of SpG-β1 mutants for immobilized IgG-Fab; assay type: binding, human; details: Table 1, Example 2, GST-fused one-domain peptide; for KA: KA=kon/koff, 1:1 binding model; for KA Vs. Wild: fold of wild-type KA; for kon: 25° C., pH 7.4
Protocol: The Fab fragment was prepared by cleaving a humanized monoclonal IgG formulation as a starting material into a Fab fragment and an Fc fragment by papain, and separating and purifying only the Fab fragment.
Specifically, a humanized monoclonal IgG formulation (Herceptin, manufactured by Chugai Pharmaceutical Co., Ltd., in the case of anti-Her2 monoclonal antibody) was dissolved in a papain digestion buffer (0.1 M AcOH—AcONa, 2 mM EDTA, 1 mM cysteine, pH 5.5). Papain immobilized agarose: Papain Agarose from papaya latex (manufactured by Sigma) was added to the solution and the mixture was incubated at 37° C. for about 8 hours while being mixed with a rotator. The IgG-Fab was collected from flow-through fractions by affinity chromatography using a KanCapA column (manufactured by Kaneka Corporation). Thus, the IgG-Fab was separated and purified from the reaction solution (containing both the Fab fragment and the Fc fragment), which had been separated from the papain immobilized agarose. The separated IgG-Fab solution was purified by gel filtration chromatography using the Superdex 75 10/300 GL column (a standard buffer was used for equilibration and separation) to obtain an IgG-Fab solution.
(§1) The affinity of each of the SpG-β1 mutants produced in Example 1 (2) for the IgG-Fab was analyzed by using a biosensor: Biacore 3000 using surface plasmon resonance principle (manufactured by GE Healthcare Bioscience). In this example, the IgG-Fab produced in Example 2 (1) was immobilized on a sensor chip and each peptide was added on the chip. The interaction between the IgG-Fab and the peptide was detected. The IgG-Fab was immobilized on the sensor chip CM5 by amine coupling using N-hydroxysuccinimide (NHS) and N-ethyl-N′-(3-dimethylaminopropyl)carbodiimide hydrochloride (EDC), and ethanolamine was used for blocking (all the sensor chips and the immobilization reagents were manufactured by GE Healthcare Bioscience). The IgG-Fab solution was about 10-fold diluted in an immobilization buffer (10 mM CH3COOH—CH3COONa, pH 4.5) and the IgG-Fab was immobilized on the sensor chip in accordance with the protocol attached to the Biacore 3000. Further, a reference cell to be used as a negative control was also prepared by immobilizing ethanolamine for another flow cell on the chip after activation by EDC/NHS. Various SpG-31 mutants were appropriately prepared at concentrations of 0.1 to 100 μM by using a running buffer (20 mM NaH2PO4—Na2HPO4, 150 mM NaCl, 0.005% P-20, pH 7.4). Each peptide solution was added on the sensor chip at a flow rate of 40 μL/minute for 60 seconds. A sensorgram of the binding reaction at 25° C. was sequentially plotted during the addition (binding phase, 60 seconds) and after the addition (dissociation phase, 60 seconds). After each sensorgram determination, the sensor chip was regenerated by adding 20 mM NaOH (for 30 seconds).

[2] = molecular target: T1, anti-TNFα antibody-Fab (IgG-Fab derived from anti-TNFα monoclonal antibody, adalimumab) (Homo sapiens, UniProt P01834+P01857); assay: as above; assay type: binding; details: GST-fused one-domain peptide; for kon / koff: 25° C., pH 7.4; for KA Vs. Wild: fold of wild-type KA
T1 construct: cleaving a humanized monoclonal IgG formulation as a starting material into a Fab fragment and an Fc fragment by papain; purchased
Protocol: as §1
The affinity of the SpG-β1 mutant for the IgG-Fab was measured in the same manner as in the experiment of Example 2.
The affinity of the SpG-β1 mutant for the IgG-Fab was measured in the same manner as in the experiment of Example 3. In this experiment, the measurement was performed on the GST-cleaved type after the GST cleavage (Pep-). Further, not only one domain type (Pep.1d) but also one domain type with Cys at the C-terminus (Pep.1dC) and two domain type with Cys at the C-terminus (Pep.2dC) were used to perform the experiment.

[3] = Table 1, Example 2, KA=kon/koff, 1:1 binding model

Row | Substance | KA [1] [M⁻¹] | KA Vs. Wild [1] | kon [1] [s/M] | kon ([2]; Table 1, Example 2) [s/M] | KA [2, 3] [M⁻¹] | KA Vs. Wild ([2]; Table 1, Example 2) | KA ([2]; Table 2, Example 3) [M⁻¹] | koff ([2]; Table 2, Example 3) [s⁻¹] | kon ([2]; Table 2, Example 3) [s/M] | KA Vs. Wild ([2]; Table 2, Example 3)
1 | K10R/K13T/K28Q/F30L/Q32R: GST-fused one-domain SpG-β1 mutant, amino acid SEQ ID NO: 17 (TTYKLILNGRTLTGETTTEAVDAATAEQVLKRYANDNGVDGEWTYDDATKTFTVTE; also: GST-fused, end not given here) | 1.72e+06 | 3.2 | – | – | – | – | – | – | – | –
2 | K13T/E19I/F30L: GST-fused one-domain SpG-β1 mutant, amino acid SEQ ID NO: 15 (TTYKLILNGKTLTGETTTIAVDAATAEKVLKQYANDNGVDGEWTYDDATKTFTVTE; also: GST-fused) | 1.99e+06 | 3.6 | 141000 | 92300 | 1.8e+06 | 2.8 | – | – | – | –
3 | K13T/E19I/V39I: GST-fused one-domain SpG-β1 mutant, amino acid SEQ ID NO: 19 (TTYKLILNGKTLTGETTTIAVDAATAEKVFKQYANDNGIDGEWTYDDATKTFTVTE; also: GST-fused) | 2.83e+06 | 5.2 | 222000 | 145000 | 2.74e+06 | 4.3 | – | – | – | –
4 | K13T/E19I/V21D/K28I/F30L/K31R/D47H: GST-fused one-domain SpG-β1 mutant, amino acid SEQ ID NO: 75 (TTYKLILNGKTLTGETTTIADDAATAEIVLRQYANDNGVDGEWTYDHATKTFTVTE; also: GST-fused) | – | – | – | – | – | – | 1.39e+06 | 0.0068 | 95000 | 3.7
5 | K13T/E19I/K28N/F30L/D40V: GST-fused one-domain SpG-β1 mutant, amino acid SEQ ID NO: 33 (TTYKLILNGKTLTGETTTIAVDAATAENVLKQYANDNGVVGEWTYDDATKTFTVTE; also: GST-fused) | – | – | – | – | – | – | 1.43e+06 | – | 108000 | 3.8
6 | K13T/E19I/K28N/F30L/Y33F: GST-fused one-domain SpG-β1 mutant, amino acid SEQ ID NO: 53 (TTYKLILNGKTLTGETTTIAVDAATAENVLKQFANDNGVDGEWTYDDATKTFTVTE; also: GST-fused) | – | – | – | – | – | – | 1.44e+06 | 0.0061 | 88000 | 3.9
7 | K13S/E19I/F30L: GST-fused one-domain SpG-β1 mutant, amino acid SEQ ID NO: 29 (TTYKLILNGKTLSGETTTIAVDAATAEKVLKQYANDNGVDGEWTYDDATKTFTVTE; also: GST-fused, end not given here) | – | – | – | – | – | – | 2.23e+06 | – | 137000 | 6.0
8 | K13T/E19I/V21N/K28I/F30L: GST-fused one-domain SpG-β1 mutant, amino acid SEQ ID NO: 37 (TTYKLILNGKTLTGETTTIANDAATAEIVLKQYANDNGVDGEWTYDDATKTFTVTE; also: GST-fused) | – | – | – | – | – | – | 3.01e+06 | 0.0071 | 214000 | 8.1
9 | K13T/V21I/A23T/F30L/E42L: GST-fused one-domain SpG-β1 mutant, amino acid SEQ ID NO: 25 (TTYKLILNGKTLTGETTTEAIDTATAEKVLKQYANDNGVDGLWTYDDATKTFTVTE; also: GST-fused) | – | – | – | – | – | – | 1.44e+06 | – | 85000 | 3.9
10 | K10R/K13T/E15Q/K28R/F30L/D36G/E42V: GST-fused one-domain SpG-β1 mutant, amino acid SEQ ID NO: 69 (TTYKLILNGRTLTGQTTTEAVDAATAERVLKQYANGNGVDGVWTYDDATKTFTVTE; also: GST-fused, end not given here) | – | – | – | – | – | – | 3.3e+06 | 0.0035 | 115000 | 8.8
11 | K13T/E19I/A23T/T25M/F30L: GST-fused one-domain SpG-β1 mutant, amino acid SEQ ID NO: 49 (TTYKLILNGKTLTGETTTIAVDTAMAEKVLKQYANDNGVDGEWTYDDATKTFTVTE; also: GST-fused) | – | – | – | – | – | – | 1.12e+06 | 0.0091 | 102000 | 3.0
12 | K13T/E19I/K28R/F30L/Y33F: GST-fused one-domain SpG-β1 mutant, amino acid SEQ ID NO: 27 (TTYKLILNGKTLTGETTTIAVDAATAERVLKQFANDNGVDGEWTYDDATKTFTVTE; also: GST-fused) | – | – | – | – | – | – | 2.02e+06 | – | 85500 | 5.4
13 | K13T/E19I/F30L/Y33F: GST-fused one-domain SpG-β1 mutant, amino acid SEQ ID NO: 47 (TTYKLILNGKTLTGETTTIAVDAATAEKVLKQFANDNGVDGEWTYDDATKTFTVTE; also: GST-fused) | – | – | – | – | – | – | 1.59e+06 | 0.0067 | 106000 | 4.3
14 | K13T/E19I/A23T/F30L/Y33F/D47N/K50R: GST-fused one-domain SpG-β1 mutant, amino acid SEQ ID NO: 45 (TTYKLILNGKTLTGETTTIAVDTATAEKVLKQFANDNGVDGEWTYDNATRTFTVTE; also: GST-fused) | – | – | – | – | – | – | 2.63e+06 | 0.0046 | 120000 | 7.0
15 | K13T/F30L/D36G (TTYKLILNGKTLTGETTTEAVDAATAEKVLKQYANGNGVDGEWTYDDATKTFTVTE) | 3.17e+06 | 5.8 | – | – | – | – | – | – | – | –
16 | K13T/E19I/Y33F/N35Y/V39L: GST-fused one-domain SpG-β1 mutant, amino acid SEQ ID NO: 41 (TTYKLILNGKTLTGETTTIAVDAATAEKVFKQFAYDNGLDGEWTYDDATKTFTVTE; also: GST-fused) | – | – | – | – | – | – | 1.87e+06 | 0.0049 | 90500 | 5.0
17 | K13T/E19I/K28N/E42K: GST-fused one-domain SpG-β1 mutant, amino acid SEQ ID NO: 39 (TTYKLILNGKTLTGETTTIAVDAATAENVFKQYANDNGVDGKWTYDDATKTFTVTE; also: GST-fused) | – | – | – | – | – | – | 1.1e+06 | 0.0124 | 137000 | 3.0
18 | K13T/E19I/F30L/Y33F/V39I/D47H: GST-fused one-domain SpG-β1 mutant, amino acid SEQ ID NO: 23 (TTYKLILNGKTLTGETTTIAVDAATAEKVLKQFANDNGIDGEWTYDHATKTFTVTE; also: GST-fused) | – | – | – | – | – | – | 2.06e+06 | 0.0039 | 79400 | 5.5
19 | K13T/E15Q/E19I/E27D/V39I/D47H: GST-fused one-domain SpG-β1 mutant, amino acid SEQ ID NO: 77 (TTYKLILNGKTLTGQTTTIAVDAATADKVFKQYANDNGIDGEWTYDHATKTFTVTE; also: GST-fused) | – | – | – | – | – | – | 1.85e+06 | 0.0067 | 124000 | 4.9
20 | K13T/E19I/A23D/V39L: GST-fused one-domain SpG-β1 mutant, amino acid SEQ ID NO: 31 (TTYKLILNGKTLTGETTTIAVDDATAEKVFKQYANDNGLDGEWTYDDATKTFTVTE; also: GST-fused) | – | – | – | – | – | – | 1.36e+06 | – | 84300 | 3.6
